Values of other authors as cited in PMC7154116.
pKd: −log10 of the molar value.

Target: NTSR3/sortilin (UniProt Q99523)
Chain of UniProt Q99523 (Q99523 78-755): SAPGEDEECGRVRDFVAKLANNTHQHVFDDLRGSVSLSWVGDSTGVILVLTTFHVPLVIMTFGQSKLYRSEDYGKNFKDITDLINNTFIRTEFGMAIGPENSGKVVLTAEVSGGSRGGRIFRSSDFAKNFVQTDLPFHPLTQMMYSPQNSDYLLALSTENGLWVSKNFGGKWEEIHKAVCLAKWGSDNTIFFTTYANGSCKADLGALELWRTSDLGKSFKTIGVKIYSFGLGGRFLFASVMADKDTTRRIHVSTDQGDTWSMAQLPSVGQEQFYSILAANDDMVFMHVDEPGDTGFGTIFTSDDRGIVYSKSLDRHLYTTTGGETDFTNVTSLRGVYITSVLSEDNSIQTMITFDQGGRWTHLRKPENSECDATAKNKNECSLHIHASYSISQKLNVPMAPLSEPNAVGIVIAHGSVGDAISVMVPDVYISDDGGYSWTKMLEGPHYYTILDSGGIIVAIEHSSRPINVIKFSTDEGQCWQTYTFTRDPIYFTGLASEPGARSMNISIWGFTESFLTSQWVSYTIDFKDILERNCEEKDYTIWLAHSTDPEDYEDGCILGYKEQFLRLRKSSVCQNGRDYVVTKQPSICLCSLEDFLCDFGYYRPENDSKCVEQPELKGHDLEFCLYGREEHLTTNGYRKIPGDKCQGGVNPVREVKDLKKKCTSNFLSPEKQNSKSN

pKd: 8.10
Substance: Spadin propeptide fragment (from UniProt Q99523)
